From the Immune Epitope Database (IEDB)

Assays:
HLA-C*12:03 = assay: IEDB peptide-MHC binding, purified MHC/direct/fluorescence; filed as Kd, often an IC50 or EC50 that approximates it; ≥ and ≤ were set here for values at or beyond the usual limits of such assays
HLA-A*24:03 = assay: as above; conditions: source organism: Mycobacterium tuberculosis
HLA-C*05:01 = assay: as above
HLA-A*02:01 = assay: IEDB peptide-MHC binding, purified MHC/competitive/fluorescence; filed as Kd, often an IC50 or EC50 that approximates it; ≥ and ≤ were set here for values at or beyond the usual limits of such assays
HLA-A*02:03 = assay: as above; conditions: source organism: Entamoeba histolytica
HLA-A*02:11 = assay: as above; conditions: source organism: Entamoeba histolytica
HLA-A*02:12 = assay: as above; conditions: source organism: Entamoeba histolytica
HLA-A*02:16 = assay: as above; conditions: source organism: Entamoeba histolytica
HLA-A*02:19 = assay: as above; conditions: source organism: Entamoeba histolytica
HLA-A*03:01 [1] = assay: as above; conditions: source organism: Entamoeba histolytica
HLA-A*26:01 = assay: as above; conditions: source organism: Entamoeba histolytica
HLA-A*29:02 = assay: as above; conditions: source organism: Entamoeba histolytica
HLA-A*68:02 = assay: as above; conditions: source organism: Entamoeba histolytica
HLA-A*69:01 [2] = assay: as above; conditions: source organism: Entamoeba histolytica
HLA-B*15:01 [3] = assay: as above; conditions: source organism: Entamoeba histolytica
HLA-B*27:03 = assay: as above; conditions: source organism: Entamoeba histolytica
HLA-B*39:01 [4] = assay: as above; conditions: source organism: Entamoeba histolytica
HLA-B*46:01 [5] = assay: as above; conditions: source organism: Entamoeba histolytica
HLA-B*57:01 [6] = assay: as above; conditions: source organism: Entamoeba histolytica
HLA-B*57:01 [7] = assay: IEDB peptide-MHC binding, purified MHC/competitive/radioactivity; filed as Kd, often an IC50 or EC50 that approximates it; ≥ and ≤ were set here for values at or beyond the usual limits of such assays; conditions: source organism: Dengue virus 1 Brazil/97-11/1997
HLA-B*58:01 [8] = assay: as above; conditions: source organism: Dengue virus 1 Brazil/97-11/1997
HLA-A*01:01 = assay: IEDB peptide-MHC binding, purified MHC/direct/fluorescence; filed as Kd, often an IC50 or EC50 that approximates it; ≥ and ≤ were set here for values at or beyond the usual limits of such assays; conditions: source organism: Bacillus anthracis
HLA-A*03:01 [9] = assay: as above; conditions: source organism: Bacillus anthracis
HLA-A*11:01 = assay: as above; conditions: source organism: Bacillus anthracis
HLA-A*31:01 = assay: as above; conditions: source organism: Bacillus anthracis
HLA-A*69:01 [10] = assay: as above; conditions: source organism: Bacillus anthracis
HLA-B*08:02 = assay: as above; conditions: source organism: Bacillus anthracis str. A0465
HLA-B*15:01 [11] = assay: as above; conditions: source organism: Bacillus anthracis
HLA-B*15:17 = assay: as above; conditions: source organism: Bacillus anthracis
HLA-B*27:05 = assay: as above; conditions: source organism: Bacillus anthracis
HLA-B*39:01 [12] = assay: as above; conditions: source organism: Bacillus anthracis str. A0465
HLA-B*40:01 = assay: as above; conditions: source organism: Bacillus anthracis
HLA-B*46:01 [13] = assay: as above; conditions: source organism: Bacillus anthracis
HLA-B*48:01 = assay: as above; conditions: source organism: Bacillus anthracis
HLA-B*57:01 [14] = assay: as above; conditions: source organism: Bacillus anthracis
HLA-B*58:01 [15] = assay: as above; conditions: source organism: Bacillus anthracis
HLA-A*02:06 = assay: IEDB peptide-MHC binding, purified MHC/competitive/fluorescence; filed as Kd, often an IC50 or EC50 that approximates it; ≥ and ≤ were set here for values at or beyond the usual limits of such assays; conditions: source organism: Bacillus cereus
[16] = source organism: Entamoeba histolytica
[17] = source organism: Bacillus cereus

AMAGNPVVI
Kd (HLA-C*12:03; source organism: Leishmania donovani): 0.727 µM

LYDAVAALF
Kd (HLA-A*24:03): ≤ 0.0001 µM | Kd (HLA-C*05:01; source organism: Mycobacterium tuberculosis C): 0.073 µM

RASHFRKLF
Kd (HLA-C*12:03; [16]): 0.019 µM | Kd (HLA-A*02:01; [16]): ≥ 20 µM | Kd (HLA-A*02:03): ≥ 20 µM | Kd (HLA-A*02:11): ≥ 20 µM | Kd (HLA-A*02:12): ≥ 20 µM | Kd (HLA-A*02:16): ≥ 20 µM | Kd (HLA-A*02:19): ≥ 20 µM | Kd (HLA-A*03:01 [1]): ≥ 20 µM | Kd (HLA-A*26:01): ≥ 20 µM | Kd (HLA-A*29:02): ≥ 20 µM | Kd (HLA-A*68:02): ≥ 20 µM | Kd (HLA-A*69:01 [2]): ≥ 20 µM | Kd (HLA-B*15:01 [3]): ≥ 20 µM | Kd (HLA-B*27:03): ≥ 20 µM | Kd (HLA-B*39:01 [4]): ≥ 20 µM | Kd (HLA-B*46:01 [5]): ≥ 20 µM | Kd (HLA-B*57:01 [6]): 0.165 µM

KTSAGVNMCT
Kd (HLA-B*57:01 [7]): 1.13 µM | Kd (HLA-B*58:01 [8]): 4.52 µM

MSDIFASEV
Kd (HLA-A*01:01): 0.0073 µM | Kd (HLA-A*03:01 [9]): ≥ 20 µM | Kd (HLA-A*11:01): ≥ 20 µM | Kd (HLA-A*31:01): ≥ 20 µM | Kd (HLA-A*69:01 [10]): ≤ 0.001 µM | Kd (HLA-B*08:02): ≥ 20 µM | Kd (HLA-B*15:01 [11]): ≥ 20 µM | Kd (HLA-B*15:17): 0.0021 µM | Kd (HLA-B*27:05): ≥ 20 µM | Kd (HLA-B*39:01 [12]): 0.467 µM | Kd (HLA-B*40:01): ≥ 20 µM | Kd (HLA-B*46:01 [13]): ≥ 20 µM | Kd (HLA-B*48:01): ≥ 20 µM | Kd (HLA-B*57:01 [14]): ≥ 20 µM | Kd (HLA-B*58:01 [15]): ≥ 20 µM | Kd (HLA-C*05:01; [17]): ≤ 0.001 µM | Kd (HLA-A*02:01; [17]): 0.0302 µM | Kd (HLA-A*02:06): 0.0121 µM
